Data published in patent US20080058278A1, “ATTENUATION OF HYPEROXIA-INDUCED CELL DEATH WITH MITOCHONDRIAL ALDEHYDE DEHYDROGENASE” (THE CHILDREN'S MERCY HOSPITAL, priority 2006, published 2008).

Tests used:
mtALDH-A549 cells [1] = assay: Necrotic cell death, trypan blue exclusion assay; type: cell-based, human; settings: for necrotic cell death (percentage of stained cells to total cells): mtALDH-A549 cells, 10 μM inhibitor pretreatment 30 minutes; for necrotic cell death, trypan blue exclusion: mtALDH overexpression (mtALDH-A549)
Text: (§1) Plasmid Construction and Transfection: For human mt ALDH plasmid construction, full-length human mtALDH cDNA without stop codon was amplified from a human lung cDNA library (Clontech, Mountain View Calif.) by RT-PCR using following primers, sense: […] (SEQ ID NO. 1), antisense: […] (SEQ ID NO. 2). The resulting human mtALDH cDNA was subcloned into the plasmid vector pcDNA3.1 (Invitrogen, Carlsbad, Calif.). The mtALDH sequence (SEQ ID NO. 3) was confirmed by direct nucleotide sequencing. mtALDH-pcDNA3 and empty pcDNA3.1 plasmids were transfected into A549 cells using LipofectAMINE (Invitrogen, Carlsbad, Calif.). The transfected cells were then selected by G418 sulfate at 500 μg/mL for ten days. A single clone was selected by limited dilution and mtALDH protein expression was confirmed by Western blotting with anti-V5 antibody (Invitrogen, Carlsbad, Calif.).
(§2) The cultured media were collected and saved.

Neo-A549 cells [2] = assay: Necrotic cell death, trypan blue exclusion assay; type: cell-based, human; settings: 10 μM inhibitor pretreatment 30 minutes
Text: as §2

mtALDH-A549 cells [3] = type: cell-based; settings: 10 μM inhibitor pretreatment 30 minutes, 48-hour hyperoxic exposure (95% O2, 5% CO2)
Text: as §1, §2

Neo-A549 cells [4] = settings: 10 μM inhibitor pretreatment 30 minutes, 48-hour hyperoxic exposure (95% O2, 5% CO2)
Protocol: Cell culture and Cell Treatment: A549 cells were purchased from American Type culture collection (ATCC, Manassas, Va.) and grown in Dulbecco's Modified Eagle Medium (DMEM) containing 10% fetal bovine serum, 50 μg/mL penicillin and 50 μg/mL streptomycin in 5% CO2 at 37° C. Normoxic exposure of the cells was conducted under room air and 5% CO2 in a humidified cell culture incubator at 37° C. Hyperoxic exposure of the cells was conducted in a humidified chamber (Billups and Rothenberg, Del Mar, Calif.) and the chamber was flushed with 95% O2, 5% CO2 (hyperoxia) at a flow rate of 10 liters per minute for 15 minutes prior to incubation at 37° c. In U0126 and LY294002 pretreatment experiments, cells were treated with or without 10 μM U0216 or LY294002 (two well-known inhibitors) for 30 minutes prior to normoxic or hyperoxic exposure.
The lactate dehydrogenase (LDH) assay kit was from Biovision (Mountain View, Calif.) and LDH activity was measured per manufacture's instruction. Briefly, cells were incubated in an incubator (5% CO2, 37° C.) for the appropriate time of treatment. The cultured media were collected and saved. […] The absorbance of all samples at 490 nm was measured using a microplate reader. The cytotoxicity was determined by the percentage of LDH activity in cultured medium over combined LDH activities of the cultured medium and cell lysate.

mtALDH = molecular target: T1, mtALDH (Homo sapiens, UniProt P05091); assay: mtALDH activity assay (NADH formation at 340 nm); type: cell-based; settings: cell homogenate supernatant, p<0.01, n=6
T1 construct: endogenous in cells; host or cells: A549 human lung type II epithelial cells (isolated mitochondrial protein or cell homogenate supernatant)
T1 sequence (P05091 18-517): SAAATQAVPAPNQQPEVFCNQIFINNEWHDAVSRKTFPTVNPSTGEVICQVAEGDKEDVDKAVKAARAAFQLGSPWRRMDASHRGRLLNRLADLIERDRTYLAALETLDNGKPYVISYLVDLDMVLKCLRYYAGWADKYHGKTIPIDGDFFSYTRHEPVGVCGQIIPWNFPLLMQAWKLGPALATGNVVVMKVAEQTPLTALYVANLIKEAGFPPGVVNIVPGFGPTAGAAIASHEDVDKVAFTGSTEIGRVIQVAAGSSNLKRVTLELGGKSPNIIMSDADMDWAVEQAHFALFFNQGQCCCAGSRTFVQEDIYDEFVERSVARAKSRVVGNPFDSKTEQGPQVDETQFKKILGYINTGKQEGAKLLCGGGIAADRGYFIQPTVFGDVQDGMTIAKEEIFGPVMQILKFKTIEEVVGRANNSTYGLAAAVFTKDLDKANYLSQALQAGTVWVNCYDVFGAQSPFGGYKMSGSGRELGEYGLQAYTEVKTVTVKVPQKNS
Protocol: mtALDH Activity Assay: mtALDH activity was measured as described previously (9). Neo-A549 and mtALDH A549 cells cultured on plates were collected in buffer of 50 mM Tris-HCl, pH 8.5. Resuspended cells were sonicated at setting 4 for 5 seconds by VirSonic sonicator from VirTis (Gardiner, N.Y.). The cell homogenates were centrifuged at 12,000×g for 10 minutes. The supernatants were saved and protein concentration was determined. Mitochondria were isolated from cultured cells using a mitochondria isolation kit from Pierce (Rockford, Ill.). The enzyme activity assay was carried out in 100 μL of 50 mM Tris-HCl, pH 8.5 containing 50 μg prepared protein, 15 μM propionaldehyde, 1 mM NAD and 1 mM 4-methylpyrazole. The ALDH activity was determined by spectrometer for NADH formation at 340 nm.

mtALDH-A549 cells [5] = assay: Apoptotic cell death, Annexin V staining and flow cytometry; type: cell-based, human; settings: mtALDH overexpression (mtALDH-A549), 48-hour hyperoxic treatment; Neo-A549 0.84%
Protocol: Analysis of Apoptotic Cells: The Apoptosis Detection kit was from R&D System (Minneapolis, Minn.). Treated cells were trypsinized and collected by centrifugation at 500×g for 5 minutes. Cells were washed with cold PBS once and resuspended in 100 uL binding buffer containing 10 mM HEPES pH 7.4, 150 mM NaCl, 5 mM KCl, 1 mM MgCl2 and 1.8 mM CaCl2. Cells were stained with Annexin V-FITC (0.05 μg per sample) for 15 minutes according to manufacturer's instructions. The stained cells were then subjected to flow cytometry analysis.

ERK = ERK phosphorylation, Western blotting; type: cell-based, human; settings: 48-hour normoxic conditions, normalized by total ERK
Protocol: Western Blotting Analysis: Antibodies were purchased from Cell Signaling Technology (Beverly, Mass.) and they were used according to manufacturer's instructions. Cultured cells after treatment were washed with cold PBS three times, and the 300 μl of sample lysis buffer (62.5 mM Tris-HCl pH 6.8, 2% w/v SDS, 10% glycerol, 200 mM dithiothreitol, and protease cocktails) was added to each plate. Cell lysates were centrifuged at 12,000×g for 10 minutes. The supernatants were saved for analysis. Protein concentration was determined by bicinchoninic acid (BCA) protein assay kit (Sigma, St. Louis, Mo.). Samples containing 50 μg of protein in loading sample buffer were boiled for 5 minutes and loaded on 12% Tris-Glycine SDS-PAGE gels. Gels were run at 120 V for approximately two hours and transferred overnight at 20 V to nitrocellulose membranes. Membranes were incubated with the blocking buffer containing 5% non-fat mile in PBST (0.1% Tween-20 in PBS) for one hour, washed with PBST and incubated overnight with the primary antibody against either phosphorylated ERK or phosphorylated Akt (Ser473). […] Phosphorylated ERK and phosphorylated Akt protein band intensities on autoradiogram were analyzed with Image-Quant (Molecular Dynamics, Sunnyvale, Calif.) and normalized by nonphosphorylated ERK, nonphosphorylated Akt or β-actin in the same sample, respectively.

Akt = Akt phosphorylation and total Akt, Western blotting; type: cell-based, human
Protocol: Western Blotting Analysis: Antibodies were purchased from Cell Signaling Technology (Beverly, Mass.) and they were used according to manufacturer's instructions. Cultured cells after treatment were washed with cold PBS three times, and the 300 μl of sample lysis buffer (62.5 mM Tris-HCl pH 6.8, 2% w/v SDS, 10% glycerol, 200 mM dithiothreitol, and protease cocktails) was added to each plate. Cell lysates were centrifuged at 12,000×g for 10 minutes. The supernatants were saved for analysis. Protein concentration was determined by bicinchoninic acid (BCA) protein assay kit (Sigma, St. Louis, Mo.). Samples containing 50 μg of protein in loading sample buffer were boiled for 5 minutes and loaded on 12% Tris-Glycine SDS-PAGE gels. Gels were run at 120 V for approximately two hours and transferred overnight at 20 V to nitrocellulose membranes. Membranes were incubated with the blocking buffer containing 5% non-fat mile in PBST (0.1% Tween-20 in PBS) for one hour, washed with PBST and incubated overnight with the primary antibody against either phosphorylated ERK or phosphorylated Akt (Ser473). The membranes were washed in PBST and proteins were visualized using horseradish peroxidase (HRP)-conjugated anti-rabbit IgG and the enhanced chemiluminescence (Amersham Bioscience, Piscataway, N.J.). The membranes were stripped using a standard stripping solution (62.5 mM Tris-HCl, pH 6.8, 2% SDS and 100 mM β-mercaptoethanol) at 50° C., and reprobed with nonphosphorylated ERK, nonphosphorylated Akt and β-actin antibodies. Phosphorylated ERK and phosphorylated Akt protein band intensities on autoradiogram were analyzed with Image-Quant (Molecular Dynamics, Sunnyvale, Calif.) and normalized by nonphosphorylated ERK, nonphosphorylated Akt or β-actin in the same sample, respectively.

mtALDH-A549 cells [6] = assay: Intracellular and mitochondrial ROS levels by flow cytometry; type: cell-based, human
Protocol: Assessment of Intracellular and Mitochondrial ROS Levels: After normoxic or hyperoxic treatment, cultured cells were stained with 10 μM of 2′,7′-dicholordihydrofluorescein diacetate, succinimidyl ester (OxyBURST® Green H2DCFDA (2′,7′-dichlorodihydrofluorescin diacetate)), SE, Molecular Probe, Oreg.) for 10 minutes. The stained cells were washed three times with PBS and then trypsinized with 0.025% trypsin and 0.05% EDTA. The resuspended cells were subjected to fluorescent intensity measured by flow cytometry. For mitochondria-derived ROS measurement, cells were incubated with 10 μM dihydrorhodamaine 123 (Molecular Probe, OR) for 15 minutes. The stained cells were washed three times with PBS and then trypsinized with 0.25% trypsin, 0.05% EDTA. The resuspended cells were subjected to rhodamine 123 fluorescent intensity measurement by flow cytometry. Statistical Analysis: The results are expressed as the mean±SEM of data obtained from two or more experiments; or where appropriate, as mean±SD. Statistical analysis was performed using the student t test for paired comparisons and ANOVA for multiple comparisons. A value of p<0.05 was considered significant.

[7] = 48-hour hyperoxic exposure (95% O2, 5% CO2)

Molecule | necrotic cell death (percentage of stained cells to total cells) (mtALDH-A549 cells [1]; [7]) [%] | necrotic cell death (percentage of stained cells to total cells) (mtALDH-A549 cells [1]; 48-hour normoxic exposure) [%] | necrotic cell death (percentage of stained cells to total cells) (Neo-A549 cells [2]; [7]) [%] | necrotic cell death (percentage of stained cells to total cells) (Neo-A549 cells [2]; 48-hour normoxic exposure) [%] | necrotic cell death (LDH cytotoxicity) (mtALDH-A549 cells [3]) [%] | necrotic cell death (LDH cytotoxicity) (Neo-A549 cells [4]) [%] | total mtALDH activity in mtALDH-A549 cells compared to Neo-A549 cells (mtALDH) | apoptotic cell death (Annexin V positive cells) (mtALDH-A549 cells [5]) [%] | ERK phosphorylation in mtALDH-A549 cells compared to Neo-A549 cells (ERK) | necrotic cell death, trypan blue exclusion (mtALDH-A549 cells [1]; 24-hour hyperoxic exposure, Neo-A549 25.3%) [%] | necrotic cell death, trypan blue exclusion (mtALDH-A549 cells [1]; 48-hour hyperoxic exposure, Neo-A549 50.5%) [%] | necrotic cell death, trypan blue exclusion (mtALDH-A549 cells [1]; 72-hour hyperoxic exposure, Neo-A549 52.4%) [%] | Akt phosphorylation in mtALDH-A549 cells versus Neo-A549 cells (Akt; 0, 24 and 48-hour hyperoxic exposure) | phosphorylated Akt level in mtALDH-A549 cells versus Neo-A549 cells (Akt; first 24-hour culture under normoxic conditions) | total Akt in mtALDH-A549 cells compared to Neo-A549 cells (Akt; prior to hyperoxic treatment (0 hour)) | intracellular ROS level (H2DCFDA staining) (mtALDH-A549 cells [6]; 24-hour hyperoxia) | intracellular ROS level versus Neo-A549 cells (mtALDH-A549 cells [6]; 24-hour hyperoxia, p<0.001) | mitochondrial ROS level (dihydrorhodamine 123) versus Neo-A549 cells (mtALDH-A549 cells [6]; 24-hour hyperoxic exposure, p<0.001)
O=c1cc(N2CCOCC2)oc2c(-c3ccccc3)cccc12 [LY294002] | 28.0 | 4.3 | 86.6 | 9.0 | – | – | – | – | – | – | – | – | – | – | – | – | – | –
N#CC(=C(/N)Sc1ccccc1N)/C(C#N)=C(\N)Sc1ccccc1N [U0126] | 26.0 | 11.6 | 44.5 | 12.6 | 9.4 | 14.1 | – | – | – | – | – | – | – | – | – | – | – | –
mtALDH: human mitochondrial aldehyde dehydrogenase (SEQ ID NO. 3) overexpressed as V5 fusion protein in A549 cells by pcDNA3.1 plasmid transfection (protein, listed as Homo sapiens, V5 tag) MLRAAARFGPRLGRRLLSAAATQAVPAPNQQPEVFCNQIFINNEWHDAVSRKTFPTVNPSTGEVICQVAEGDKEDVDKAVKAARAAFQLGSPWRRMDASHRGRLLNRLADLIERDRTYLAALETLDNGKPYVISYLVDLDMVLKCLRYYAGWADKYHGKTIPIDGDFFSYTRHEPVGVCGQIIPWNFPLLMQAWKLGPALATGNVVVMKVAEQTPLTALYVANLIKEAGFPPGVVNIVPGFGPTAGAAIASHEDVDKVAFTGSTEIGRVIQVAAGSSNLKRVTLELGGKSPNIIMSDADMDWAVEQAHFALFFNQGQCCCAGSRTFVQEDIYDEFVERSVARAKSRVVGNPFDSKTEQGPQVDETQFKKILGYINTGKQEGAKLLCGGGIAADRGYFIQPTVFGDVQDGMTIAKEEIFGPVMQILKFKTIEEVVGRANNSTYGLAAAVFTKDLDKANYLSQALQAGTVWVNCYDVFGAQSPFGGYKMSGSGRELGEYGLQAYTEVKTVTVKVPQKNS | – | – | – | – | – | – | increased more than two fold | 0.48 | seven-fold increase | 6.5 | 9.1 | 15.1 | 2-3 times | two-fold higher | about 1.8 fold | increased only approximately two fold | significantly decreased | significantly decreased
